# Experimental data as given in publication doi:10.1101/2020.08.21.261974.
# Biological target: BG505 SOSIP.664 native-like envelope gp140 trimer (HIV-1 (BG505))
# Experiment: cryo-EM structure
substance,measurement,value
M48U1 peptide,stoichiometry N (per BG505 trimer),3
